Measured values taken from article doi:10.1101/2020.02.02.931204.

Target: HA-SFPQ (human) (UniProt P23246)
Experiment: co-IP

Chain of Myc-KLC1 ΔTail (domain or fragment) (O88447 whole entry, stated change not applied, the tested form may be a part): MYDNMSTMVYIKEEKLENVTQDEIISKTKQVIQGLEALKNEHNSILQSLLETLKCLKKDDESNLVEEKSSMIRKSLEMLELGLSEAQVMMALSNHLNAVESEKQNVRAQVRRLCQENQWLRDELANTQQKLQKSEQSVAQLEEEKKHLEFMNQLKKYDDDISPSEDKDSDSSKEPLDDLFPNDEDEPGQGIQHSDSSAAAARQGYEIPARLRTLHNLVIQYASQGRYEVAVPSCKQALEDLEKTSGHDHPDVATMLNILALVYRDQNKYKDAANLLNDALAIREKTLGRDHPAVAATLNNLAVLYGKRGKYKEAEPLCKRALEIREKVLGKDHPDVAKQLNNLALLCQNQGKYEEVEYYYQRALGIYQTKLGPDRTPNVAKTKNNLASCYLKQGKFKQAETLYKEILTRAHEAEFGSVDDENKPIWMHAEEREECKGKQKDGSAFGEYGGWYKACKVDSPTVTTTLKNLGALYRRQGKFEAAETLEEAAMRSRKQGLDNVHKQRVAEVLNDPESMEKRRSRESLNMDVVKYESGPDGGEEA
Chain of HA-SFPQ (human) (P23246 whole entry): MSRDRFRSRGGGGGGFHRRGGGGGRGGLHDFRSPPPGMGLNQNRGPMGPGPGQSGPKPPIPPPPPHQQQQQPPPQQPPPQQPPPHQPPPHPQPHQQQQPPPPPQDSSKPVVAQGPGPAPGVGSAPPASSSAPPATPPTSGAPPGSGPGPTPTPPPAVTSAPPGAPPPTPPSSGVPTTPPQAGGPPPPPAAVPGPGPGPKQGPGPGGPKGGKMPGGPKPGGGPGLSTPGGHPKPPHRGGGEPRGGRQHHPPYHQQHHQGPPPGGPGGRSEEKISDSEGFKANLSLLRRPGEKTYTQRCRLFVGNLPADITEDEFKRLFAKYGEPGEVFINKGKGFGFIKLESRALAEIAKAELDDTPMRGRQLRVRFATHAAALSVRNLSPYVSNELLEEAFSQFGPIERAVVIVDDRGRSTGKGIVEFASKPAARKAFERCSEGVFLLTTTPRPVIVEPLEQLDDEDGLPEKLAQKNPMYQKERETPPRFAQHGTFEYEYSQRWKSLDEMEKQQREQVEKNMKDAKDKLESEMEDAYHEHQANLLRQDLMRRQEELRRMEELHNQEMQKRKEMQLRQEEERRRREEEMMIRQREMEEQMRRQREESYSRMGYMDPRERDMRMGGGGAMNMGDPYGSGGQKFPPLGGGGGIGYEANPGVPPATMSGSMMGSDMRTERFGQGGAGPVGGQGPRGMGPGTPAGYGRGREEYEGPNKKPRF

## Myc-KLC1 ΔTail (domain or fragment)
  reduction of binding against WT KLC1: 50%
